In assay [1] the target is ATP synthase subunit g, mitochondrial (UniProt O75964). Description: IP-MS, FLAG-OMP25TM bait (control).
For assay [2], the target named is mitochondrial-processing peptidase subunit beta (UniProt O75439). Description: IP-MS, FLAG-OMP25TM bait (control).
Assay [3] concerns the target ATP synthase subunit O, mitochondrial precursor (UniProt P48047). The experiment in a line: IP-MS, FLAG-OMP25TM bait (control).
The target in assay [4] is UDP-glucose: glycoprotein glucosyltransferase 1 (UniProt Q9NYU2). The experiment in a line: IP-MS, FLAG-OMP25TM bait (control).
The target in assay [5] is ATP synthase subunit beta (UniProt P06576). Description: IP-MS, FLAG-OMP25TM bait (control).
Sequence of ATP synthase subunit beta (P06576 48-529): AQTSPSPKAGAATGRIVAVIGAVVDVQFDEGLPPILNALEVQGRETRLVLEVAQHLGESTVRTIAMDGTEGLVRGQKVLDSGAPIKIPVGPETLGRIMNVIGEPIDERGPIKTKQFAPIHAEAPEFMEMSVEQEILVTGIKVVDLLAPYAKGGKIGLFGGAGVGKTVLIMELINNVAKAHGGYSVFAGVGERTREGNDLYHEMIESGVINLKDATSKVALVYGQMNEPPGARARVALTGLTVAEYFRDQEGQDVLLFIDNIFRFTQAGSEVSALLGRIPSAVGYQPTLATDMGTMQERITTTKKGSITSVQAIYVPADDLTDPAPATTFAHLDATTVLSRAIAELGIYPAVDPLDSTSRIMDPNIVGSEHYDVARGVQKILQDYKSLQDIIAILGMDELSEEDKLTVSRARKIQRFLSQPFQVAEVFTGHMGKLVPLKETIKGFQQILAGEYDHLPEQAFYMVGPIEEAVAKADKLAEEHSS
For assay [6], the target named is ATP synthase subunit gamma, isoform L (UniProt P36542). Description: IP-MS, FLAG-OMP25TM bait (control).
Sequence of ATP synthase subunit gamma, isoform L (P36542 26-298): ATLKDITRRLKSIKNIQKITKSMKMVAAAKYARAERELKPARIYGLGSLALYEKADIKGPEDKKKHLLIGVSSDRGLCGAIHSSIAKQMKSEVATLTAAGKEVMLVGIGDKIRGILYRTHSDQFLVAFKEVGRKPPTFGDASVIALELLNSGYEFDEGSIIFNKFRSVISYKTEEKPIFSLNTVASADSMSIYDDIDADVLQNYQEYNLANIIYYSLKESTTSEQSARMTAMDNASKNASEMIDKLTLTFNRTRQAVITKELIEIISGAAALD
The target in assay [7] is protein zyg-11 homolog B (UniProt Q9C0D3). The experiment in a line: IP-MS, FLAG-OMP25TM bait (control).
Sequence of protein zyg-11 homolog B (Q9C0D3 whole entry, canonical isoform): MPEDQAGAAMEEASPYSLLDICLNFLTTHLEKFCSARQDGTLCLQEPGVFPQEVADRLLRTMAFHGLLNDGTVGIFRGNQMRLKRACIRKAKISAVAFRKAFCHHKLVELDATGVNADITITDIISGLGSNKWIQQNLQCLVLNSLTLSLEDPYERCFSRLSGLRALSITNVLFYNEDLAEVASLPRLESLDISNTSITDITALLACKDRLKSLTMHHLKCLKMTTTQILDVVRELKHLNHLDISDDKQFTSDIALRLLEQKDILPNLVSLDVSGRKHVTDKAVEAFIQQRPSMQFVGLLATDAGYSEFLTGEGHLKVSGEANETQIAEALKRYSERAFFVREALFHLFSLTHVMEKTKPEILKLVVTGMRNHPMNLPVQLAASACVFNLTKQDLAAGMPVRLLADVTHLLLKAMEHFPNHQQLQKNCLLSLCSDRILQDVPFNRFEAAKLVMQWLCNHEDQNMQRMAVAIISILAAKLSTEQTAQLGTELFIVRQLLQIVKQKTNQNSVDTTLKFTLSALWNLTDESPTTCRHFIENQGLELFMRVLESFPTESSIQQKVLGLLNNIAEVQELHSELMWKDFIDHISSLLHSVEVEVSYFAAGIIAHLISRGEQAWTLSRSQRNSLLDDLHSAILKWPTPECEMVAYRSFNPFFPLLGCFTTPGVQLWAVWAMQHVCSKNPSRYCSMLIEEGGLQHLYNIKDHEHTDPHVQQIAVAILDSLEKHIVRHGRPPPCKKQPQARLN
Assay [8] addresses ATPase inhibitor, mitochondria; isoform 1 (UniProt Q9UII2). Description: IP-MS, FLAG-OMP25TM bait (control).
Assay [9] has as its target 60 kDa heat shock protein, mitochondrial (UniProt P10809). The experiment in a line: IP-MS, FLAG-OMP25TM bait (control).
In assay [10] the target is ATP synthase subunit b, mitochondrial precursor (UniProt P24539). The experiment in a line: IP-MS, FLAG-OMP25TM bait (control).
Sequence of ATP synthase subunit b, mitochondrial precursor (P24539 43-256 limits assumed): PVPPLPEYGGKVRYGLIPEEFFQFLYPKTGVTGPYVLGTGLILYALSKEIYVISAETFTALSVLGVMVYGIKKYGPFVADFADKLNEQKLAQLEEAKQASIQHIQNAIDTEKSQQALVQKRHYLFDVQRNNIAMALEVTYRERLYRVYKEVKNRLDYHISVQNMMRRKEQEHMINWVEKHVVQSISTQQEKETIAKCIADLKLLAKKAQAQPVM
Assay [11] has as its target mitochondrial-processing peptidase subunit alpha (UniProt Q10713). Description: IP-MS, FLAG-OMP25TM bait (control).
Assay [12] has as its target ATP synthase subunit alpha (UniProt P25705). Description: IP-MS, FLAG-OMP25TM bait (control).
Assay [13] concerns the target ATP synthase subunit d, mitochondrial isoform a (UniProt O75947). Description: IP-MS, FLAG-OMP25TM bait (control).
The target in assay [14] is ornithine aminotransferase (UniProt P04181). The experiment in a line: IP-MS, FLAG-OMP25TM bait (control).
Sequence of ornithine aminotransferase (P04181 26-439 limits assumed): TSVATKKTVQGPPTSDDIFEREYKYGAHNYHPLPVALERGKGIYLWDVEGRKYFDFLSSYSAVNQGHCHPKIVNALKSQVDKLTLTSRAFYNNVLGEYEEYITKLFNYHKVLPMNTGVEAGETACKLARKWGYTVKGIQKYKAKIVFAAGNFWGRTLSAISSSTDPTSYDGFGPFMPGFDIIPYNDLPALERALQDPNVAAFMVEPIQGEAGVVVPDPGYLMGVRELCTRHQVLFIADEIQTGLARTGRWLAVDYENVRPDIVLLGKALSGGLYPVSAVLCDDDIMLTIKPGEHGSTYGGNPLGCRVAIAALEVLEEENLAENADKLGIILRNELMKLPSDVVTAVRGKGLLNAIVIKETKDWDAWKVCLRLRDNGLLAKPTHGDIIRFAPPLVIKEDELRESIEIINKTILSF
Assay [15] deals with ATP synthase subunit g, mitochondrial (UniProt O75964). The experiment in a line: IP-MS with Flag tagged ATPIF1 as bait, no antimycin.
Assay [16] concerns the target mitochondrial-processing peptidase subunit beta (UniProt O75439). Described as above.
The target of assay [17] is ATP synthase subunit O, mitochondrial precursor (UniProt P48047). Described as above.
Sequence of ATP synthase subunit O, mitochondrial precursor (P48047 24-213 limits assumed): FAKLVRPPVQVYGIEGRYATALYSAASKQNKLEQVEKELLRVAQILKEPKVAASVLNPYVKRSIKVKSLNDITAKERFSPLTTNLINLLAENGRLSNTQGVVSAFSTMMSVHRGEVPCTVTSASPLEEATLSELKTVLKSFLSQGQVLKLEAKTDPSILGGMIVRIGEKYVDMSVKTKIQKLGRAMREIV
Assay [18] has as its target UDP-glucose: glycoprotein glucosyltransferase 1 (UniProt Q9NYU2). The description is as above.
Assay [19] has as its target ATP synthase subunit beta (UniProt P06576). The assay is described as above.
Assay [20] has as its target ATP synthase subunit gamma, isoform L (UniProt P36542). Described as above.
In assay [21] the target is protein zyg-11 homolog B (UniProt Q9C0D3). The description is as above.
Assay [22] has as its target ATPase inhibitor, mitochondria; isoform 1 (UniProt Q9UII2). The description is as above.
For assay [23], the target named is 60 kDa heat shock protein, mitochondrial (UniProt P10809). The assay is described as above.
Sequence of 60 kDa heat shock protein, mitochondrial (P10809 27-573 limits assumed): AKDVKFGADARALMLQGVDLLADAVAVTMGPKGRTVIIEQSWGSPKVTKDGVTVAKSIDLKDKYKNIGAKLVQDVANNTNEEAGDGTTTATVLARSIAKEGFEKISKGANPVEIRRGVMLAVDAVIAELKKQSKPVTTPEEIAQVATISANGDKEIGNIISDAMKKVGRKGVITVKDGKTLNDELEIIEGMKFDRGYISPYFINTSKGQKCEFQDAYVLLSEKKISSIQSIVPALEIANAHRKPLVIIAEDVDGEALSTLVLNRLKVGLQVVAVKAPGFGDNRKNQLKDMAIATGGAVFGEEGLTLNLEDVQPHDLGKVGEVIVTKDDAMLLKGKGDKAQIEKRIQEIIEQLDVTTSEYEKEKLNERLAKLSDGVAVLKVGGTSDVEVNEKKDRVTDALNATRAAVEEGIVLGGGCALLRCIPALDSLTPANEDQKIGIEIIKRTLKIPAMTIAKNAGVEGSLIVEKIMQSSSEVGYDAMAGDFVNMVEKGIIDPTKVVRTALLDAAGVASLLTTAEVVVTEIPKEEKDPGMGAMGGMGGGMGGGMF
The target of assay [24] is ATP synthase subunit b, mitochondrial precursor (UniProt P24539). Described as above.
For assay [25], the target named is mitochondrial-processing peptidase subunit alpha (UniProt Q10713). Described as above.
Sequence of mitochondrial-processing peptidase subunit alpha (Q10713 34-525 limits assumed): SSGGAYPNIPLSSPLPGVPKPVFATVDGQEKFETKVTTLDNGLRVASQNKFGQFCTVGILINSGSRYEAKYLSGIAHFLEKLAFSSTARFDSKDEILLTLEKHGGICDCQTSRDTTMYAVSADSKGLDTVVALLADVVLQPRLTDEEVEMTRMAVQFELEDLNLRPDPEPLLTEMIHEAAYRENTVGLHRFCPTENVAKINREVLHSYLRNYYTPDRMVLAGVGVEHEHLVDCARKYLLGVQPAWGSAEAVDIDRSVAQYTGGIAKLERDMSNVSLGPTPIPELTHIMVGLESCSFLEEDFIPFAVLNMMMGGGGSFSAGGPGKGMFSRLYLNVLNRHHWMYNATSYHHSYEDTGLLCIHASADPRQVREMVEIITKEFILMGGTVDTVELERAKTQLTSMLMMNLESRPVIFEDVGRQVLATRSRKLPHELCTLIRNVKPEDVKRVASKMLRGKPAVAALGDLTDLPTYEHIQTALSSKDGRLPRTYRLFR
Assay [26] concerns the target ATP synthase subunit alpha (UniProt P25705). The description is as above.
Assay [27] deals with ATP synthase subunit d, mitochondrial isoform a (UniProt O75947). Described as above.
Sequence of ATP synthase subunit d, mitochondrial isoform a (O75947 2-161): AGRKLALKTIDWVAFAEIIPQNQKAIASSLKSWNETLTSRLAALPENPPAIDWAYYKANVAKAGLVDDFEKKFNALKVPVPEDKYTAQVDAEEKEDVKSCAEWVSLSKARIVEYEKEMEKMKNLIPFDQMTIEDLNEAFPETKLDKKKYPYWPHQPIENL
For assay [28], the target named is ornithine aminotransferase (UniProt P04181). The description is as above.

The record followed here is patent publication US20150065556A1, “THERAPEUTIC TARGETS FOR MITOCHONDRIAL DISORDERS” (Whitehead Institute for Biomedical Research, priority 2013, published 2015).

Sequence of ATPase inhibitor, mitochondria; isoform 1 (Q9UII2 26-106): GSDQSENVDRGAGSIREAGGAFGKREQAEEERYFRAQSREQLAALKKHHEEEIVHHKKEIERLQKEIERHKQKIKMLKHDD
Sequence of mitochondrial-processing peptidase subunit beta (O75439 44-489 limits assumed): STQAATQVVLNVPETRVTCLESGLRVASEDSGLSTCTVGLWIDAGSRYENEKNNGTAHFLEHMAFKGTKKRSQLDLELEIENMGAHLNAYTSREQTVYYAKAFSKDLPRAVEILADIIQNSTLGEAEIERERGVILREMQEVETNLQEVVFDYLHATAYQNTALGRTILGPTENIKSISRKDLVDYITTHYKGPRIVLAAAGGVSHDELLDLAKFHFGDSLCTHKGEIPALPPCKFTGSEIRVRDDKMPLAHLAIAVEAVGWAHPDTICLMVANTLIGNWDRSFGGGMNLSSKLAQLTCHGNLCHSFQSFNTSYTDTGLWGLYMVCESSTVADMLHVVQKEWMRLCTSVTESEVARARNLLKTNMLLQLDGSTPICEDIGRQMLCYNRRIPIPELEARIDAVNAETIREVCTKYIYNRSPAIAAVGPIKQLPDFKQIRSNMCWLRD
Sequence of ATP synthase subunit alpha (P25705 44-553): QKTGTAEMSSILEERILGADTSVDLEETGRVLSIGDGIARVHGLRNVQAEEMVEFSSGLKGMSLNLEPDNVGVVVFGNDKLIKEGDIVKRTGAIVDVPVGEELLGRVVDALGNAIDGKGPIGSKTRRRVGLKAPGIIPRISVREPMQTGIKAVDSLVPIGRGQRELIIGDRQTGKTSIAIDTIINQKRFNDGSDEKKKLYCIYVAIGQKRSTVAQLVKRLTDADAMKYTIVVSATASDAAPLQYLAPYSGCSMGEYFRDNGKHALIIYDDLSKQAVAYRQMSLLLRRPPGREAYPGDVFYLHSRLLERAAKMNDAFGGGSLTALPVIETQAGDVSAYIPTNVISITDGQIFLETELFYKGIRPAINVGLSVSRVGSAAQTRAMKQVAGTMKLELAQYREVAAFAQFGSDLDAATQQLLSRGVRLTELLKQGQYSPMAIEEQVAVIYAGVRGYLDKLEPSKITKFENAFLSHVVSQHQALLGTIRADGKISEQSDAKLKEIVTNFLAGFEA
Sequence of ATP synthase subunit g, mitochondrial (O75964 2-103): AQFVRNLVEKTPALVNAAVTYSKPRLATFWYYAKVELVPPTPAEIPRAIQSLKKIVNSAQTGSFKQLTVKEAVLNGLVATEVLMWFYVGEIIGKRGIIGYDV

With FLAG-OMP25TM, the IP-MS count (kind of count not given) in [1] worked out at 0; in assay [2], 0; in assay [3], 3; in assay [4] it was 5; in assay [5] it was 7; in assay [6], 2. Besides, the IP-MS count (kind of count not given) with protein zyg-11 homolog B [7] came out at 0; in assay [8], 3; in assay [9], 4; in assay [10] it was 3; in assay [11], 0; in assay [12] it was 11. For the same substance, the IP-MS count (kind of count not given) in assay [13] and in assay [14] was 1 in each case.

With “Flag tagged ATPIF1 (from UniProt Q9UII2 26-106)”, the IP-MS count (kind of count not given) in [15] stood at 14; in assay [16], 17; in assay [17], 47; in assay [18], 15; in [19], 375; in [20] it was 59. Moreover, the IP-MS count (kind of count not given) in the assay with protein zyg-11 homolog B [21] turned out to be 19; in assay [22] it was 175; in assay [23], 28; in [24] it was 44; in assay [25], 14; in [26] it was 381. The IP-MS count (kind of count not given) in assay [27] is 26; in assay [28], 16.
